Assay [1] addresses T1, human LRRC15 (leucine-rich repeat-containing protein 15), expressed on cells (human, UniProt Q8TF66 22-581).
T1 construct: Cells: U118MG (endogenous), HCT116-huLRRC15, 3T12-huLRRC15 transfectants, TGFbeta-treated A549, human BM-MSC; also called huLRRC15; endogenous huLRRC15
T1 sequence: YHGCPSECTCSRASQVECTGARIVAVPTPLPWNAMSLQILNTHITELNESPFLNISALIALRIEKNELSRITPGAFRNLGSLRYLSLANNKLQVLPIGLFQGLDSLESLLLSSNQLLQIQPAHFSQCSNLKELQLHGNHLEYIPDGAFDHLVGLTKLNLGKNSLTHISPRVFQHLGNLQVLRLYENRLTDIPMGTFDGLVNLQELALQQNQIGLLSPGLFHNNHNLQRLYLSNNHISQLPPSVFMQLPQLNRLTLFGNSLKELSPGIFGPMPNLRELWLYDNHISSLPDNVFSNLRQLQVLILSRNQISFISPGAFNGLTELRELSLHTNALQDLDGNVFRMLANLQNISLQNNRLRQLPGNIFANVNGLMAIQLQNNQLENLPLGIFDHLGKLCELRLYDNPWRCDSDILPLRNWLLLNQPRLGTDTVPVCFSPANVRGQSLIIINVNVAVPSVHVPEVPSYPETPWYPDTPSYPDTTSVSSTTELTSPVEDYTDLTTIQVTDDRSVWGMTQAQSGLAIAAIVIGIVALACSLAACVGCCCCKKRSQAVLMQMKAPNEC
The assay can be described thus: flow cytometry on U118MG cells. From the text:
Isotype control antibodies (mouse or human) were used as appropriate.

For assay [2], the target named is T2, huLRRC15-Fc fusion protein (huLRRC15 ECD residues 22 to 526 of SEQ ID NO:3 fused to Fc) (human, UniProt Q8TF66 22-526).
T2 construct: Coated on the ELISA plate at 2 ug/mL; also called huLRRC15-ECD-Fc; huLRRC15 fusion ECD protein
T2 sequence: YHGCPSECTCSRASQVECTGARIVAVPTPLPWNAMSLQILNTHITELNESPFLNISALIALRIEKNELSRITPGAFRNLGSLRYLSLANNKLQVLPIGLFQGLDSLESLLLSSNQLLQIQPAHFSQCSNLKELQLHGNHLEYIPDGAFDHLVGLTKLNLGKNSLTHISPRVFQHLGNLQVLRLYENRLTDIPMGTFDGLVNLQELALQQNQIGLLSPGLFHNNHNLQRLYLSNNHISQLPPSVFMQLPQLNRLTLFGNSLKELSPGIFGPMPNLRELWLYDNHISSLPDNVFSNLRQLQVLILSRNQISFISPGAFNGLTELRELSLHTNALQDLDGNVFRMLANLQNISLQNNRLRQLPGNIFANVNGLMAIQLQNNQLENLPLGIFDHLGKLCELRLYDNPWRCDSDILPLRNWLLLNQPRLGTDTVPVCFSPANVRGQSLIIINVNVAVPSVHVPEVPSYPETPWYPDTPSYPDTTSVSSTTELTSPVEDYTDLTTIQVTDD
The experiment in a line: ELISA on coated huLRRC15-ECD-Fc. As for the experimental part: 96-well Immulon 4HBX plates (Thermo, cat. #3855) were coated with 100 μL/well of this huLRRC15 fusion ECD protein at 2 μg/mL in carbonate-bicarbonate buffer (Thermo, cat.#28382) pH 9.4 and allowed to bind overnight at 4° C. Plates were washed three times with PBST and then incubated with various concentrations of antibodies in PBST+0.3% BSA at room temperature for one hour. […] Plates were washed three times in PBST and 100 μL of TMB (Surmodics BioFx cat.# TMBW-1000-01) was added to each well and incubated at RT until color developed (approximately 10 minutes). Reactions were stopped by the addition of 650 nm Stop Reagent for TMB (Surmodics BioFx, cat.# BSTP-0100-01), and optical density (OD) was read at 650 nm (Molecular Devices Versamax PLUS).

For assay [3], the target named is T1, human LRRC15 (leucine-rich …). The experiment in a line: cell-based or functional assay.
The target is the same in assay [4]. The experiment in a line: flow cytometry competition on U118MG cells; unlabeled antibody titrated against muM25-AF488 at 1 ug/ml, GeoMean normalized to muM25-AF488 alone.

B1: huAD208.12.1 (antibody, V domains shown)
VH: EVQLVQSGAEVKKPGSSVKVSCKASGYTFTNYWMHWVKQAPGQGLEWIGMIHPNSGSTKHNEKFRGKATLTVDESTTTAYMELSSLRSEDTAVYYCARSDFGNYRWYFDVWGQGTTVTVSS
VL: EIVLTQSPATLSLSPGERATLSCRASQSSSNNLHWYQQKPGQAPRVLIKYVSQSISGIPARFSGSGSGTDFTLTISSLEPEDFAVYFCQQSNSWPFTFGQGTKLEIK
notes: Humanized full-length antibody
Consider B1, for which the binding result in assay [1] is recorded as “binds”.

B2: hu139.10 (antibody, V domains shown)
VH: EVQLVESGGGLVQPGGSLRLSCAVSGFSLTSYGVHWVRQATGKGLEWLGVIWAGGSTNYNSALMSRLTISKENAKSSVYLQMNSLRAGDTAMYYCATHMITEDYYGMDYWGQGTTVTVSS
VL: DIVMTQSPDSLAVSLGERATINCKSSQSLLNSRTRKNYLAWYQQKPGQSPKLLIYWASTRESGVPDRFSGSGSGTDFTLTISSLQAEDVAVYYCKQSYNLPTFGGGTKVEIK
notes: Humanized full-length antibody; Compared with a huIgG1 isotype control
B2: the 50% effective concentration (EC50) in assay [1] was 0.28 nM; in assay [2], 0.11 nM.

B3: muAD209.9.1 (antibody, V domains shown)
VH: QIQLVQSGPELKKPGETVKISCKASGFAITNFGMNWVKQAPGKGLKWMGWINLYTGEPTFADDFKGRFAFSLETSASTAYLQINNLKNEDTVIYFCARKGETYYRYDGFAYWGQGTLVTVSA
VL: DIVMTQAAPSVPVTPGESVSISCRSSKSLLHSNGNTHLYWFLQRPGQSPQLLIYRMSNLASGVPDRFSGSGSGTAFTLRISRVEAEDVGVYYCMQLLEYPYTFGGGTKLEIE
notes: Murine antibody; Compared with a muIgG2a isotype control
As to B3, the EC50 in assay [1] was 0.787 nM; in assay [2], 0.14 nM.

B4: muAD210.40.9 (antibody, V domains shown)
VH: QVQLQQSGAELVRPGTSVKISCKASGYDFTNYWLGWVKQRPGHGLEWIGDIYPGGGNTYYNEKLKGKATLTADKSSSTAYIHLISLTSEDSSVYFCARWGDKKGNYFAYWGQGTLVTVSA
VL: QIVLTQSPAIMSASLGERVTMTCTASSSVYSSYLHWYQQKPGSSPKLWIYSTSNLASGVPGRFSGSGSGTSYSLTISSMEAEDAATYYCHQYHRSPTFGGGTKLEIK
notes: as for B3
Take B4: in assay [1], the EC50 stood at 0.08 nM.

B5: huAD208.4.1 (antibody, V domains shown)
VH: EVQLVQSGAEVKKPGSSVKVSCKASGFTFTDYYIHWVKQAPGQGLEWIGLVYPYIGGTNYNQKFKGKATLTVDTSTTTAYMEMSSLRSEDTAVYYCARGDNKYDAMDYWGQGTTVTVSS
VL: DIVLTQSPDSLAVSLGERATINCRASQSVSTSSYSYMHWYQQKPGQPPKLLIKYASSLESGVPDRFSGSGSGTDFTLTISSLQAEDVAVYYCEQSWEIRTFGGGTKVEIK
notes: Humanized full-length antibody, compared with a huIgG1 isotype control
For the molecule B5, the figures for the EC50 in assay [1] and in assay [2] were 0.29 nM and 0.25 nM, respectively.

B6: huAD208.14.1 (antibody, V domains shown)
VH: EVQLVQSGAEVKKPGSSVKVSCKASGFTFTDYYIHWVKQAPGQGLEWIGLVYPYIGGSSYNQQFKGKATLTVDTSTSTAYMELSSLRSEDTAVYYCARGDNNYDAMDYWGQGTTVTVSS
VL: DIVLTQSPDSLAVSLGERATISCRASQSVSTSTYNYMHWYQQKPGQPPKLLVKYASNLESGVPDRFSGSGSGTDFTLTISSLQAEDVAVYYCHHTWEIRTFGGGTKVEIK
notes: as for B2
As to B6, the 50% effective concentration (EC50) came to 5.25 nM in assay [1] and 0.8 nM in assay [2].

B7: huM25-mcMMAF-E2 (antibody, human IgG1, kappa)
heavy: not shown
light: DIQMTQSPSSLSASVGDRVTITCRASQDISNYLNWYQQKPGGAVKFLIYYTSRLHSGVPSRFSGSGSGTDYTLTISSLQPEDFATYFCQQGEALPWTFGGGTKVEIKRTVAAPSVFIFPPSDEQLKSGTASVVCLLNNFYPREAKVQWKVDNALQSGNSQESVTEQDSKDSTYSLSSTLTLSKADYEKHKVYACEVTHQGLSSPVTKSFNRGEC
modifications: mcMMAF (maleimidocaproyl monomethyl auristatin F) on cysteines of reduced interchain disulfides, two drugs per antibody (E2); which chain carries them is not stated
In the case of B7, the “in vitro killing of HCT116-huLRRC15 cells, EC50” value in assay [3] turned out to be 0.028 nM.

B8: huM25-S239C-PBD-E2 (antibody, human IgG1, kappa)
heavy: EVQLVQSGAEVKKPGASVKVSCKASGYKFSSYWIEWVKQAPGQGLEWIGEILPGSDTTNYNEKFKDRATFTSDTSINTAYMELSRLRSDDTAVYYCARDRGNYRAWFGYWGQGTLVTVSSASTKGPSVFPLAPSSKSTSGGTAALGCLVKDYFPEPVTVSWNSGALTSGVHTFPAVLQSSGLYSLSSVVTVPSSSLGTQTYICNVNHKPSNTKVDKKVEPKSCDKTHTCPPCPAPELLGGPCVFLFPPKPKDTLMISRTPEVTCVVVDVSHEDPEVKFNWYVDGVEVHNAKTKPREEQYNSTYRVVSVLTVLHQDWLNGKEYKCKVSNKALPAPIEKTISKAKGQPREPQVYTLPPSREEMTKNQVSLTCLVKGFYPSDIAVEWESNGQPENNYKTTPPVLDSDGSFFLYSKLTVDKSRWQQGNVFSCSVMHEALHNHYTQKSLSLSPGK
light: DIQMTQSPSSLSASVGDRVTITCRASQDISNYLNWYQQKPGGAVKFLIYYTSRLHSGVPSRFSGSGSGTDYTLTISSLQPEDFATYFCQQGEALPWTFGGGTKVEIKRTVAAPSVFIFPPSDEQLKSGTASVVCLLNNFYPREAKVQWKVDNALQSGNSQESVTEQDSKDSTYSLSSTLTLSKADYEKHKVYACEVTHQGLSSPVTKSFNRGEC
modifications: vaPBD (Val-Ala pyrrolobenzodiazepine dimer synthon) on the engineered cysteine S239C, DAR2
With B8, the “in vitro killing of A549-EMT transformed cells treated with TGFbeta, EC50” value in assay [3] stood at 0.01 nM.

B9: huM25-vcMMAE-E2 (antibody, human IgG1, kappa)
heavy: not shown
light: DIQMTQSPSSLSASVGDRVTITCRASQDISNYLNWYQQKPGGAVKFLIYYTSRLHSGVPSRFSGSGSGTDYTLTISSLQPEDFATYFCQQGEALPWTFGGGTKVEIKRTVAAPSVFIFPPSDEQLKSGTASVVCLLNNFYPREAKVQWKVDNALQSGNSQESVTEQDSKDSTYSLSSTLTLSKADYEKHKVYACEVTHQGLSSPVTKSFNRGEC
modifications: vcMMAE (maleimidocaproyl-Val-Cit-PABA-monomethyl auristatin E) on cysteines of reduced interchain disulfides, two drugs per antibody (E2); which chain carries them is not stated
On to B9, for which the “in vitro killing of HCT116-huLRRC15 cells, EC50” value in assay [3] is 0.069 nM.

B10: huM25 (antibody, human IgG1, kappa)
heavy: not shown
light: DIQMTQSPSSLSASVGDRVTITCRASQDISNYLNWYQQKPGGAVKFLIYYTSRLHSGVPSRFSGSGSGTDYTLTISSLQPEDFATYFCQQGEALPWTFGGGTKVEIKRTVAAPSVFIFPPSDEQLKSGTASVVCLLNNFYPREAKVQWKVDNALQSGNSQESVTEQDSKDSTYSLSSTLTLSKADYEKHKVYACEVTHQGLSSPVTKSFNRGEC
notes: Humanized IgG1 kappa; also called huM25-AF647
Turning to B10, the EC50 in assay [1] was found to be 0.498 nM; in assay [2], 0.26 nM. The “IC50 (read off the curve)” value in assay [4] was about 0.4 µg/mL.

These data come from patent US20170151343A1 (AbbVie / Abbott, published 2017).
